The text below walks through data of patent US20150231218A1 (MAYO FOUNDATION FOR MEDICAL EDUCATION AND RESEARCH, published 2015).

The assay deals with T1, HLA-A2 (class I MHC molecule) on TAP deficient T2 cells.
T1 construct: whole, on cells; Target of the T2 HLA-A2 stabilization assay; The assay text says only HLA-A2; also called HLA-A*0201
Nature of the assay: T2 HLA-A2 stabilization assay.

Description: Many of the polypeptides that were processed in the assay were synthesized and tested for binding to the class I MHC molecule, HLA-A2, using the standard T2 HLA-A2 stabilization assay.

With SLAFLPESFD (Synthetic peptide) [HER-2/neu polypeptide p373-382 (SLAFLPESFD)], the binding result is recorded as “binds”.
